This passage reports protease stability score results from the NTF2 design screens of Basanta et al. (2020).

This data set is described as follows: protease stability score; higher = more stable; yeast display proteolysis, trypsin and chymotrypsin.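 Further: relative to predicted unfolded state with 0 unfolded-like and 1 meaning tenfold more protease.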
Regarding “DEKTEISEFALELFKESYDTGDEHTINRLADPHYRVVIGDKDLIGMEWLEHVIRHHKERVDHYRDVTVKDIKVIGNKVIADIRSHVHVDGQERDLDIDLVVFKINGRWRIKMIKID”, the protease stability score stood at 1.15.
Then “DEKTEIVSRIMIVFFHALLTGDWETLKKNADPHVKLEAEGRKSHGMEELVRWIHEEIKRIPGIRFELKRYDVQGDKVEIEGRVRINGVEFELIIESVIVDGKLKSIREEWR”, with 1.41; and “DEKTEKEQRWFEEILHAILTGDEEFLLRNADPNTRSHFNGRDVHGMELLSEIWTKHVEDLGFDHAHIRSVKVFDGRFILNMQIHVNGVELDVHLIYDVVDGVVKRVIVETHKH”, with 0.442; and “DEKTEQSREIIELLLKALQTGDEDTLTELLDPHVKIHIGDKDYHGREEVSRLLQEFWDRFKNARIEIHDYRDINGRVHVDLRHVVGDKTYTSKWNILKVNGRWYIEQIHVH”, with 2.07.
Then “DEKTKEVEHLTEYLREVWETGDFESLHEMMDPHVRVDIGDKHVHGREAVAHHFRKHLENWGVTRFRIEFHVRDVRDINGVVHLDTELRILFDGVLITMRTRFIIEKINGRWVFREVIVR”, with 2.63; and “DEKYKRVEQAVRIYLELISTGDEEMISHYVDPNVQAEVGDYEHHGMEEFIKVVSRVDYLEHSEWKDWRYVDGRIEIEGHLYGKINGKRDVLDIRIIASKVNGKWRLHKVTIK”, with 1.41; and “DELAEYAKEVIERIDHSITTGDERSVKRLLDPDVKLLIGDKELHGREDWEEWMKRIDHVSVRDSRIKEVKVYDGRLRIDGHKRMYYFNENEEREHTTRVVIILLKIDGRWVMHSVHFI”, with 1.4.
The same measure for “DELDDITEHLLHRFVDSLITGDEDLLEKYADPNAKLIIEIGDKRIERHGMHRFYELLLRFKNVKLDVKEIHVQGDKATIESTLQYGDKKHDTRLEVEFYDGRLKIIRWEIR”: 2.25; for “DELDEELHKLFEKYLRSHLTGDFHSLERLLDPNARLIWIVDGKMINIHGREDISRFLREWEEEARHHHHELKEVDTQGNYFHSRMHEDGHINGVRRKIHVTHNIVMIDGKLESITHIII”: 1.08; for “DELDEFREYWIRYVEEVFRTGDFEKHLSLMDPNARVLVDGKELHGREFLEVHMRRIKNATVRDVHHHDMEIQGDKVTLDVDVHVNVNGRDVDKHVLIISEKVNGRWISRSLEVR”: 0.628.
Consider “DELDEILVRIAEMVVEIWETGDWEWLEHLLDPHVRLQIGDKEVHGREAIREMIHELLNKLPNIRSHIRLREVRYYNGKAHFNTELRLHINGRDLRSRVRYEILVVDGRVRSMHVEIR”, for which the protease stability score was determined as 1.09.
Take “DELDEQVEELARDIIRNWHTGDEERWEHLADPHVRVTIDGRLHIGREEAMKMLRHWLKRIDHITVNIRRIHVFNGRSEVHSELTMHVGDKNIHHHEIINIVIVDGRIHNQEIHLK”: the protease stability score amounted to 1.39.
For the sequence “DELDHDIERNLRLWLEALYTGDFEFLLRLVDPNVRMHINGVNDHGWKFAEFLIRRADHSEMEIRIRHVHEVNGVLRMDGEVKFDIRQGDKSREKHIEVHMVLMKVNGQWFVKSFEFK”, the protease stability score was determined as 1.47.
The sequence “DELDHEIRHVLHIIHHLLLTGDEEIFEEMADPDPRLDLVYGDKKIHVHGWKNILDMLKRLLDHWRIRHVEIKRITTQGNKAHLDTRSNLIINGRELIVIIELNVVTFNGVMKDMRIKIV” showed a protease stability score of 1.65.
Sequence “DELDKLAHIMMEEILRNWVTGDEDRHNELADPTVRMHSIVGDKHLEIHGREIFTEFLKRIKNVTFEIRLTDLKIQGEKAHSHTRLILRFDGQQVERDTEVTIIVINGRVKDVSIIIR” showed a protease stability score of 1.06.
As for “DELDKRTREFTRLFLEWEETGDFHTMLNFLDPNARVDVNGVHLIGREKMVEHFLTEHERIDHREWHLRRIHYYDGRSDIDGHITLFVDGQEIHIRVHVIFFVVDGRMHMVEKRII”, the protease stability score worked out at 0.751.
As to “DELDRISTRLADLFIHLVETGNWEFLKELLDPDVRMIIGDFELVGRETIIEFFEKLERHLGVDHSEIVIERRHSQGEKAELHTRLIVRVNGRKRVIDTRLELHWVDGRLKEINIHEH”, the protease stability score turned out to be 1.17.
The same measure for “DELDRLAEDWVKIIIHSLKTGDEDTLHKMADPNYQVEIGDFRFHGRERWIHVLREHREELGVTRVHSELHELHTFNGRAVSVVDLHVNGVTLHVIVFVRKVNGRWQDTSQVYKYE”: 0.491; for “DELDRLMRHISKLWVELLLTGNEEITSHLADPDARLHINGRDTIGREEYIRMYHEWLNEIRIRDFHIHSIKTQGNKANTDSELDLEVNGKRLDLRITIIILNINGRMKSVKVEVI”: 0.99.
As to “DELDRRAKKMLRIWLEERFTGDEETVSKLADPDTRTQIHVGDKDLVSIGMESVSEFLRRMIHHWRIEHVKVKDTKVFDGVAHLHGEIHGNIDGQRVDVRLEVRVVVINGRIHSMSEEFT”, the protease stability score came to 1.61.
The same measure for “DELDRTVEEVSRYFMRNYITGNEERLWEMADPHVKFISEHHESHGMEEHKKFLEEAGITNVKFDIHDQKVFNGVVVVNGKIHVNGRTVDVRLISEKFDGRWHLHIIRVD”: 1.15; for “DELDSILEEFARVFMQNLETGDEDSSRHYLDPHYRVELDIGDWTIQMHGWRSDHIRRRYLGADHERILIRDYRVYNGRIRVEGQMDITVNGKRVTYHTEFILHVVNGKATRVSMKFE”: 0.707.
In the case of “DELEDDSRRAMETLIEIEKTGDWDLMYQLADPHVKLDINGRIIHGRDEFERRIHEHLTELGIKHHHVKHFQIRIVDGRMEVRLDGILRFNGKDLDVEIVLIVLKVNGRWLLEHSSVKYK”, the protease stability score amounted to 1.38.
For the sequence “DELEDLAQKTHELFVQHYRTGDEDHLRHLLDPNAIMEIGDYHFIGREEILKFLVHWRIHRSEIKHLHVQGDKAEQEVEVDIEIGDKRFRTETHSIWIKINGKWFMHDFTVK”, the protease stability score turned out to be 2.17.
Sequence “DELEEDSKKFFEILIKAYWTGDFTTLSRMMDPHVRNDINGRDIHGMEELSRVETEISRKYGADHFDFHIKDFKVQGEKLTVHGRIIIRVNGKTFEHDEIFYLIKIDGKWTWESVEVL” had a protease stability score of 0.989.
“DELEEDVRSSLKVLLHSHRTGNEELNEKMADPNARVTVDGVEFHGREEMVHWISHIRVERFILRSVHFQGDKLHIDGESDGVVNGRRWRRRTHIIELKVDGKWVLKSLIFE”: the protease stability score was determined as 1.46.
Turning to “DELEEELDQFQKLMVESSKTGDEDTEKKLADPNVRVDINGVILHGMENFVEFMRHWRIKHIHNKEVRFINGRAHVTGDVEGHVNGRDTRTRVTLIIIKINGRWFIEEVKFD”, the protease stability score was found to be 1.37.
“DELEEELETAERISHEVLDTGDERIWSKLIDPNARLQIGDKEYHGREEVQRFFLEFGFKVSDIHSVKVQGDKIHVDTRSRVDGKEIELQLNSEKINGKWVLRHIHVWKR” showed a protease stability score of 1.28.
In turn, “DELEEETERMFRIIIEFMLTGDWKTLYKLFDPNMLMIINGKELHGRESMATALKFWLRHIREDDIKIHHVELQGEKAISDGRSRGEIGDKEQTRKVHIEVIVINGRVHHVRVDIH” came in with a protease stability score of 0.819.
“DELEEETREAIRLMFESVKTGDEDSIKHLADPHVRVLINGRDDHGMKILHHLFSRFKNLTIELKRVHVYGEKAEVHTNWHINGRYYHVIWILIKINGRWFIESIEIH”: the protease stability score is 1.61.
Then “DELEEETRFILEYLRHSWKTGDWRLESRMADPDVRLDVDGKHLHGREMVSHFAKRLSERVDHSEFIERDLRIQGNKIELHGELILRFNGVEVHRELHLHISKVNGRWVLKDIRIG”, with 0.831; and “DELEEETRRFAKHWVESLLTGDEDKLSRLMDPNVILDVNGREHIGWERAVHHLSRLLKELGAKHINVRLHELRIYDGVAEIDSRLQIIVGDKTEEHNVKLVITKVDGRWVVKSITIH”, with 1.95; and “DELEEEVLKALDEWLRSLATGDFDTLTHLMDPNAKTHIGDKHYHGRELLEIWIKRVDHVHRLHFRLRRYRVVGNKVELDGELEIDGEINGRHTNHSEDIRIVLHKIDGRWVVESMIIR”, with 2.53.
Sequence “DELEEEVMEFIRVFIHLLNTGDEDHLHELIDPNVRVEDENEEKHGRDTVEHMQRFFKNLRVTDLKVETFEVQGEFVHVHVDIEERVGDKHFHYKVLYIILKVDGRWLMHQVRFH” gave a protease stability score of 2.12.
“DELEEFLHTIMELVVRNMFTGDEDSFNNLADPDVKSHINGKNAVGREEIIRVWKEWVEEIRTTHYDIHDFTIIGDKAHSDTRVDGTFNGVRDTIDTRVIVLVVDGRLKSLEIRMH” had a protease stability score of 0.986.
Then “DELEEILEELFRRMLEWLRTGDEEAMSKLADPHYKLLWNGREHVGREVILERLEKINQHLRIRHIHIHEIRFIDGRVESDTRVDGEVNGRRTEYTQKVIIFIVNGRFKFLEIQLR”, with 1.71; and “DELEEISDTALKMFEHVVKTGDWRELEKLLDPNVKIYYNGREYHGREEAVRIWKEILDRFGADHFELRLRHKHVQGDKVSYHIELRLHYDGKTHHTFMRIIFLKVDGKWLEHELHIH”, with 2.38.
For the sequence “DELEEISRRAQELSLRLFHTGDERSWERLVDPHAKLDVNGVDVHGRELVHKFFERNIRELGIKHIHLEHEEVQGNKVKLIMHINVNGVERRLVIIAEKIDGRWVLREHKEE”, the protease stability score is 0.464.
“DELEEKIHRWAELFLKMVLTGNEEFFRHLFDPDARSDINGVRVIGREDMDEVLKFWLDHLRFEHWVYTEVRIYDGRMEVHTRHDIDVNGVLYRRQMRIHLDVVDGRVKEASITRE” showed a protease stability score of 1.37.
In turn, “DELEELAEKIIRRLSELLLTGDFRELERFADPHTRVDINGKEFHGREFFSKLWLEMVRRFDHIEVHVHHMEIQGDKVFIDSRLHLLQGDKKEDREVLFILRKIDGRWILTVWKIR” came in with a protease stability score of 2.32.
As for “DELEELEKEAIKESEDILRTGDEERILRLADPNVRVDIDGVVRHGREWWTRLFSDELRKFKGARIRLKEIRSFDGRIRIDTTLEVDGVTRDMYVISEKVNGRWIIRSIHYE”, the protease stability score was determined as 1.33.
“DELEELIRKLAELFFEILRTGDEDKLRKLLDPHAKFTFIINGVIIDSIGRDFILKLHEDLWRRIKNVRMEYERVEVQGDKAYFRTRMNFNGKETETNLHLIIVDGKLKQESWEIE” had a protease stability score of 0.738.
In turn, “DELEELLQRAIKMFKDTNETGDEETLEKLLDPNVRYQVGDKEFHGREAIHVIFRRADHWKEMRIRSFRVYDGRAELDVEEVIFYNGVEIRTRTRIHFRKVDGRWYVHSIEIS” came in with a protease stability score of 1.53.
In turn, “DELEENSRLALELWINSFLTGDEDTTEKMADPHVRLIIDGKLFHGREAFSEHMLERSLRADHTEVRLHDRKIVGDKLIIDTRIHSHVNGVDVTLNVLLIMHKYDGRWRIHSVEIH” showed a protease stability score of 1.23.
Sequence “DELEETAERMMKQFTDMWRTGDEEYFWRLADPHVRVNIDGVTRIGREESSEMFERWIRHIRLKSVHIEEVEIQGEKSHSDGRLNEIVDGKEEIVHVTINLIVINGRIHSVEFERE” showed a protease stability score of 0.765.
As to “DELEEVIQKVAEMWVRLYKTGNEEIIHKLADPDVRAVYNGVENIGMHRHVELLHRLLEEIRIHDIRINRIEVQGEKAHNDTQVHFIVGEKRETRETHIEIVVVNGVIKEVVIRIH”, the protease stability score amounted to 0.629.
For the sequence “DELEEYLKRLAKEILELMQTGDEDRWMKLADPNVRIDVNGVELHGRETWVERMEDILREIRSEYRIRHVHSQGNWARVDGELDIKVNGRIIRHKTEFIVVTVNGRIREEKFHIR”, the protease stability score was 0.335.
